The source of these data is publication PMC5704290.

The data set relates to NCCC(=O)O. The data set can be described thus: purified protein. The settings on record: pH 7.8; 25.0 °C.

As for (Mycobacterium tuberculosis H37Rv), the Michaelis-Menten constant (Km) – broadly, the substrate concentration at which the rate is half of its maximum – turned out to be 610 ± 10 µM and the kcat/Km (commonly the turnover number divided by the Michaelis constant) was 2600 M⁻¹ s⁻¹.
